The results in this text go back to PMC12809078 (2025).

The experiment concerns the target CtBP2_(31-364)-StrepI (human, UniProt P56545 31-364). The experiment is described as follows: ITC. A general note: In ITC the heat of successive injections is recorded.

With NKEGDTAWDLTPE [G9a peptide encompassing residues 881 to 893], the affinity, expressed as Kd, was 7.2 µM.
